{"source": "paper PMC4764579", "about": "(2016)", "biological_target": "TRPV1 (Rattus norvegicus, UniProt O35433)", "sequence (O35433 whole entry)": "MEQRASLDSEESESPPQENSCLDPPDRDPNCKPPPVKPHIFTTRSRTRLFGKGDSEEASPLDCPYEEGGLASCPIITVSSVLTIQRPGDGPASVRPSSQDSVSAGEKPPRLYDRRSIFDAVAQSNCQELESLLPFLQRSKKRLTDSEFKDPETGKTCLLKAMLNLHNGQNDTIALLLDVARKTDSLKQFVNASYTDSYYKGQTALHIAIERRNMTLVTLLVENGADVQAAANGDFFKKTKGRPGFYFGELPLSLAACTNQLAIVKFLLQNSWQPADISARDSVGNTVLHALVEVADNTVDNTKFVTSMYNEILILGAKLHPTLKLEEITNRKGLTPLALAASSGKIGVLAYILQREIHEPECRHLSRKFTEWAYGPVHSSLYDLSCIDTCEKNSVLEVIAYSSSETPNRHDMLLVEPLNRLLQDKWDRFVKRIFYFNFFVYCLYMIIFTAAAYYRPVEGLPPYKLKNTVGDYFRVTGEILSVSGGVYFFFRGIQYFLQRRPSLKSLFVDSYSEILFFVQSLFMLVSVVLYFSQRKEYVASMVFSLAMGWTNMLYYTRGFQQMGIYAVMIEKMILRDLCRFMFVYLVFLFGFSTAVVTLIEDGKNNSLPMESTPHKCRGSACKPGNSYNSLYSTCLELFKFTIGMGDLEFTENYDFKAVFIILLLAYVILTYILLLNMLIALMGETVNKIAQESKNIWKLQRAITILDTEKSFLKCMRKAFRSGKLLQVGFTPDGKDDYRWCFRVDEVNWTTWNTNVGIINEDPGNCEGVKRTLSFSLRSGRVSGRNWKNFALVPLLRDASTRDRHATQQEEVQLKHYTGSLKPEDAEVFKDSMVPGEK", "assay": "electrophysiology, Hill fit", "data": [{"binder": "TNCAKEGEVCGWGSKCCHGLDCPLAFIPYC", "note": "[double-knot toxin (DkTx) K2 knot]", "values": [{"measurement": "Kd", "result": 8.5, "unit": "µM"}]}]}
